According to patent US20240002517A1:

Assays:
[1] = target: G-CSF-R (Homo sapiens (Human)) (UniProt Q99062); test: potency ELISA, plate coated with G-CSFR, HRP detection, parallel line analysis; 120 mg/mL formulation, 0 months at 5 C
[2] = target: G-CSF-R (Homo sapiens (Human)) (UniProt Q99062); test: potency ELISA, plate coated with G-CSFR, HRP detection, parallel line analysis; 120 mg/mL formulation, 3 months at 5 C
[3] = target: G-CSF-R (Homo sapiens (Human)) (UniProt Q99062); test: potency ELISA, plate coated with G-CSFR, HRP detection, parallel line analysis; 120 mg/mL formulation, 6 months at 5 C
[4] = target: G-CSF-R (Homo sapiens (Human)) (UniProt Q99062); test: potency ELISA, plate coated with G-CSFR, HRP detection, parallel line analysis; 120 mg/mL formulation, 9 months at 5 C
[5] = target: G-CSF-R (Homo sapiens (Human)) (UniProt Q99062); test: potency ELISA, plate coated with G-CSFR, HRP detection, parallel line analysis; 120 mg/mL formulation, 12 months at 5 C
[6] = target: G-CSF-R (Homo sapiens (Human)) (UniProt Q99062); test: potency ELISA, plate coated with G-CSFR, HRP detection, parallel line analysis; 120 mg/mL formulation, 18 months at 5 C
[7] = target: G-CSF-R (Homo sapiens (Human)) (UniProt Q99062); test: potency ELISA, plate coated with G-CSFR, HRP detection, parallel line analysis; 120 mg/mL formulation, 24 months at 5 C
[8] = target: G-CSF-R (Homo sapiens (Human)) (UniProt Q99062); test: potency ELISA, plate coated with G-CSFR, HRP detection, parallel line analysis; 120 mg/mL formulation, 0 months at 25 C
[9] = target: G-CSF-R (Homo sapiens (Human)) (UniProt Q99062); test: potency ELISA, plate coated with G-CSFR, HRP detection, parallel line analysis; 120 mg/mL formulation, 3 months at 25 C
[10] = target: G-CSF-R (Homo sapiens (Human)) (UniProt Q99062); test: potency ELISA, plate coated with G-CSFR, HRP detection, parallel line analysis; 120 mg/mL formulation, 6 months at 25 C
[11] = target: G-CSF-R (Homo sapiens (Human)) (UniProt Q99062); test: potency ELISA, plate coated with G-CSFR, HRP detection, parallel line analysis; 120 mg/mL formulation, 9 months at 25 C
[12] = target: G-CSF-R (Homo sapiens (Human)) (UniProt Q99062); test: potency ELISA, plate coated with G-CSFR, HRP detection, parallel line analysis; 120 mg/mL formulation, 12 months at 25 C
[13] = target: G-CSF-R (Homo sapiens (Human)) (UniProt Q99062); test: potency ELISA, plate coated with G-CSFR, HRP detection, parallel line analysis; 120 mg/mL formulation, 18 months at 25 C

- potency relative to reference standard [1]: 108%
- potency relative to reference standard [2]: 116%
- potency relative to reference standard [3]: 108%
- potency relative to reference standard [4]: 108%
- potency relative to reference standard [5]: 107%
- potency relative to reference standard [6]: 100%
- potency relative to reference standard [7]: 103%
- potency relative to reference standard [8]: 108%
- potency relative to reference standard [9]: 109%
- potency relative to reference standard [10]: 109%
- potency relative to reference standard [11]: 99%
- potency relative to reference standard [12]: 96%
- potency relative to reference standard [13]: 96%
Substance: CSL324 (antibody)
